Test results reported in PMC5931534, “Non-canonical activation of DAPK2 by AMPK constitutes a new pathway linking metabolic stress to autophagy” (Nature Communications, 2018).

Biological target: calmodulin (CaM) (UniProt P62157 1-149)
Test: cell-based or functional assay

B1: FLAG-DAPK2 WT (enzyme)
chain: MFQASMRSPNMEPFKQQKVEDFYDIGEELGSGQFAIVKKCREKSTGLEYAAKFIKKRQSRASRRGVSREEIEREVSILRQVLHHNVITLHDVYENRTDVVLILELVSGGELFDFLAQKESLSEEEATSFIKQILDGVNYLHTKKIAHFDLKPENIMLLDKNIPIPHIKLIDFGLAHEIEDGVEFKNIFGTPEFVAPEIVNYEPLGLEADMWSIGVITYILLSGASPFLGDTKQETLANITAVSYDFDEEFFSQTSELAKDFIRKLLVKETRKRLTIQEALRHPWITPVDNQQAMVRRESVVNLENFRKQYVRRRWKLSFSIVSLCNHLTRSLMKKVHLRPDEDLRNCESDTEEDIARRKALHPRRRSSTS
  fold induction of the catalytic activity (MLC phosphorylation, in vitro kinase assay) upon addition of Ca2+/CaM against EGTA: 5.7 fold
